Read-outs that look alike come from different tables or passages of the source.
What was measured:
[1] = target: Cynomolgus macaque ASGR1 on CHO-S cells (Cynomolgus macaque); assay: Guava flow cytometry on CHO-S cells expressing cynomolgus ASGR1
[2] = target: Cynomolgus macaque ASGR1 on CHO-S cells (Cynomolgus macaque); assay: Guava flow cytometry on CHO-S cells expressing cynomolgus ASGR1 (repeat of Table 15)
[3] = target: T1, rat ASGR1 on CHO-S cells (rat) (UniProt P02706); assay: Guava flow cytometry on CHO-S cells expressing rat ASGR1
T1 sequence (looked up): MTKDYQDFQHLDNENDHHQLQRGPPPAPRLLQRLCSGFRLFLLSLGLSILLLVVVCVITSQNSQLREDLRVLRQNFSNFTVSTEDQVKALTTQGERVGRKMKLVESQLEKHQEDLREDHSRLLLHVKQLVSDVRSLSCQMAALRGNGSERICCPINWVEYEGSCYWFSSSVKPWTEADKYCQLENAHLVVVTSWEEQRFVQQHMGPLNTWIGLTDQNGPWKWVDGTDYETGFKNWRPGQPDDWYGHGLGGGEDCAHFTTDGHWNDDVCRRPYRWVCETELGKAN

[4] = target: human ASGR1 (asialoglycoprotein receptor 1) on cells (human) (UniProt P07306); assay: flow cytometry on HepG2 cells, anti-human IgG PE secondary, MFI (Geo Mean)
Sequence of human ASGR1 (asialoglycoprotein receptor 1) on cells (human) (P07306 whole entry): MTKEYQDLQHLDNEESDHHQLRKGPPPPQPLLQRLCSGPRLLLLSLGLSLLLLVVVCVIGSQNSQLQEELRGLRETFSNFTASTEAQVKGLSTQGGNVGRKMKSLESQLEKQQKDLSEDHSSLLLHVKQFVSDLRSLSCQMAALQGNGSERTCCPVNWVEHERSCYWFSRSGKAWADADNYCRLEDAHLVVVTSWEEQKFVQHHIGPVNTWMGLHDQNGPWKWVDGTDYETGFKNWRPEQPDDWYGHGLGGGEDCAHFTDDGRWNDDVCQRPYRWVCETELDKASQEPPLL

[5] = target: human ASGR1 (asialoglycoprotein receptor 1) on cells (human) (UniProt P07306); assay: as above; remark: listed apart in the source
[6] = target: T1, rat ASGR1 on CHO-S cells (rat); assay: Guava flow cytometry on CHO-S cells expressing rat ASGR1 (repeat of Table 16)

Binder	EC50 [1]	EC50 [2]	EC50 [3]	EC50 (read off the curve) [4]	EC50 (read off the curve) [5]	EC50 [6]
ASGR1 mAb-A (antibody, from another filing, V domains shown) VH: QVQLVQSGTEVKKPGASVKVSCKASGYTFTNYDINWVRQATGQGLEWMGWMHPNSGNTGYAQKFQGRVTLTRNTSISTAYMELSSLRSEDTAVYYCASSSGWYYFDYWGQGTLVTVSS VL: DIVMTQSPDSLAVSLGERATINCKSSQSILHSSNNNNYLAWFQQKPGQPPKLLLYWASTRESGVPDRFSGSGSGTDFTLTISSLQPEDVAVYYCQQYYNTPVTFGPGTKVGIK	1.07 nM	1.07 nM	3.22 nM	0.5 µg/mL	0.6 µg/mL	3.22 nM
ASGR1 mAb-B (antibody, from another filing, V domains shown) VH: EVQLVESGGGLVKPGGSLRLSCAASGFTFSSYSMNWVRQAPGKGLEWVSSISGSSSYIYYADSVKGRFTISRDNAKNSLYLQMNSLRAEDTAVYFCARGGSRGFDPWGQGTLVTVSS VL: DIQMTQSPSSLSASVGDRVTITCRASQSITSYLNWYQQKPGKAPKLLIYTASSLQSGVPSRFSGSGSGTDFTLTISSLQPEDFATYYCQQSHSFPFTFGPGTKVDIK	0.36 nM	0.36 nM	0.38 nM	0.2 µg/mL		0.38 nM

From patent US20210130473A1, “TGFßR1 INHIBITOR-ASGR ANTIBODY CONJUGATES AND USES THEREOF” (Silverback Therapeutics, Inc., priority 2019, published 2021)
